According to patent US20240197828A1, “Chimeric molecule to treat sepsis and other inflammatory conditions” (THE FEINSTEIN INSTITUTES FOR MEDICAL RESEARCH, priority 2022, published 2024):

Molecular target: T1, rmCIRP (Mus musculus, UniProt P60824)
T1 construct: purchased Cubasio Technology LLC CSB-EP613483He0
T1 sequence (P60824 1-172): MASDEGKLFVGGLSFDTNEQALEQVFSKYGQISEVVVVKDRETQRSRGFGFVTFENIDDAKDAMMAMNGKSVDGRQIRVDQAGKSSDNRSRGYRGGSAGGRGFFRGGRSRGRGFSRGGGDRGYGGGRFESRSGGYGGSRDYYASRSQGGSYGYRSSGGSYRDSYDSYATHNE
Test: Surface plasmon resonance (Biacore/OpenSPR) binding to rmCIRP
Parameters: species or system murine
Conditions: rmCIRP immobilized, rmMFG-E8 analyte 15.7 to 250 nM, DPBS with Ca/Mg, 1% BSA, pH 7.4; read-out: equilibrium dissociation KD between rmCIRP and rmMFG-E8
Text: Computational modeling was used to determine the likely domain of MFG-E8's binding to eCIRP. The known amino acid (AA) sequence of this domain was used to develop and test potential therapeutic peptides. An MFG-E8 derived oligopeptide, MOP3, was developed based on 15 AA from MFG-E8 discoidin 2 domain (mimicking MFG-E8's C-terminal) and tagged with the 3 AA, RGD, (mimicking MFG-E8's binding capacity for the integrin receptor at the N-terminal). Binding of MOP3 to CIRP was quantified using Surface Plasmon Resonance (SPR) analysis. Macrophages (RAW264.7 cells) were treated with FITC-recombinant mouse (rm)-CIRP or co-incubated MOP3 and FITC-rmCIRP with and without a. Br-integrin Ab. After 1 h, cells were fixed and analyzed for intracellular FITC-rmCIRP by flow cytometry. Macrophages were stimulated with rmCIRP or co-incubated mixture of MOP3 and rmCIRP. After 4 h, cell culture supernatants were analyzed for inflammatory cytokine, TNFα. […]
To examine the direct interaction between rmCIRP and rmMFG-E8, surface plasmon resonance (SPR), OpenSPR (Nicoya), was performed between rmCIRP and rmMFG-E8. rmCIRP was immobilized on carboxyl sensor and rmMFG-E8 was injected as an analyte in concentrations of 15.7 nM to 250 nM. […] To evaluate binding, the analyte was injected into flow cell-1 and flow cell-2 and increasing concentrations and real-time interaction data were analyzed by TraceDrawer (Nicoya). […]

Kd: 200 nM
B1: milk fat globule-epidermal growth factor—factor VIII (protein, listed as Mus musculus)
chain: MQVSRVLAALCGMLLCASGLFAASGDFCDSSLCLNGGTCLTGQDNDIYCLCPEGFTGLVCNETERGPCSPNPCYNDAKCLVTLDTQRGDIFTEYICQCPVGYSGIHCETETNYYNLDGEYMFTTAVPNTAVPTPAPTPDLSNNLASRCSTQLGMEGGAIADSQISASSVYMGFMGLQRWGPELARLYRTGIVNAWTASNYDSKPWIQVNLLRKMRVSGVMTQGASRAGRAEYLKTFKVAYSLDGRKFEFIQDESGGDKEFLGNLDNNSLKVNMFNPTLEAQYIKLYPVSCHRGCTLRFELLGCELHGCSEPLGLKNNTIPDSQMSASSSYKTWNLRAFGWYPHLGRLDNQGKINAWTAQSNSAKEWLQVDLGTQRQVTGIITQGARDFGHIQYVASYKVAHSDDGVQWTVYEEQGSSKVFQGNLDNNSHKKNIFEKPFMARYVRVLPVSWHNRITLRLELLGC
